Measured values from patent US20040253632A1.
Read-outs that look alike come from different tables or passages of the source.

What was measured:
[1] = biological target: DO11.10 scTCR/murine IgG2b fusion molecule (mouse) (UniProt P01867); experiment: sandwich ELISA on supernatant of COS-7 cells co-transfected with both fusions; goat anti-murine kappa capture, anti-murine IgG2b-HRP detection, A450
[2] = biological target: DO11.10 TCR (endogenous T cell receptor of the DO11.10 T cell hybridoma); experiment: cell-based or functional assay
[3] = biological target: DO11.10 TCR (endogenous T cell receptor of the DO11.10 T cell hybridoma); experiment: cell-based or functional assay; remark: listed apart in the source
[4] = biological target: DO11.10 scTCR/murine CD3ζ fusion molecule (membrane-bound, on transfected cells) (mouse) (UniProt P24161); experiment: cell-based or functional assay
Sequence of UniProt P24161 (P24161 whole entry, the tested form may be a part): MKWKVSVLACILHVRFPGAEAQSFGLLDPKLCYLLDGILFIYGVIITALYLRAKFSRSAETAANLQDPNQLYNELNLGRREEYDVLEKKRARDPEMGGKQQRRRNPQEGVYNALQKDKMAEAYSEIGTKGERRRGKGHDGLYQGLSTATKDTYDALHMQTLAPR

Sequence of UniProt P01867 (P01867 other isoform, or with tags, fused parts or gaps): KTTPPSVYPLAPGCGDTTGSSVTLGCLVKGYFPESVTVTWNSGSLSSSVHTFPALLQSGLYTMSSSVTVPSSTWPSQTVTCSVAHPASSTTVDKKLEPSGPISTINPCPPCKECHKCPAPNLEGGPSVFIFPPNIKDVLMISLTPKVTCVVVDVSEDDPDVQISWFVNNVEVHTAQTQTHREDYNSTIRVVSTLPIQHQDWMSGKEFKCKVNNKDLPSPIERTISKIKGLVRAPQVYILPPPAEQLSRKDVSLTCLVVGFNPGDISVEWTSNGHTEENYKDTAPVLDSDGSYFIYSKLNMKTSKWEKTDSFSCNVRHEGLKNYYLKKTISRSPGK

Row | Substance | IL-2 ELISA value; DO11.10 T cells; 7 ng complex/well [3] | IL-2 ELISA value; DO11.10 T cells; 15 ng complex/well [3] | IL-2 ELISA value; DO11.10 T cells; 31 ng complex/well [3] | IL-2 ELISA value; DO11.10 T cells; 62 ng complex/well [3] | IL-2 ELISA value; DO11.10 T cells; 125 ng complex/well [3] | IL-2 ELISA value; DO11.10 T cells; 250 ng complex/well [3] | IL-2 ELISA value; DO11.10 T cells; 100 ng complex/well [2] | IL-2 ELISA value; DO11.10 scTCR 2B4 transfectants; 7 ng complex/well [4] | IL-2 ELISA value; DO11.10 scTCR 2B4 transfectants; 15 ng complex/well [4] | IL-2 ELISA value; DO11.10 scTCR 2B4 transfectants; 31 ng complex/well [4] | IL-2 ELISA value; DO11.10 scTCR 2B4 transfectants; 62 ng complex/well [4] | IL-2 ELISA value; DO11.10 scTCR 2B4 transfectants; 125 ng complex/well [4] | IL-2 ELISA value; DO11.10 scTCR 2B4 transfectants; 250 ng complex/well [4] | further results
1 | DO11.10 scTCR/murine kappa fusion molecule |  |  |  |  |  |  |  |  |  |  |  |  |  | absorbance relative to the negative control (fold) [1]: 40 fold
2 | multi-valent scIA^d/OVA-BirA complexes (biotinylated scIA^d/OVA-BirA bound to avidin) (from UniProt P02701 25-152) (peptide-MHC) |  |  |  |  |  |  |  |  |  |  |  |  |  | IL-2 ELISA value; DO11.10 cells; 31 ng complex/well [2]: 0.554 A450; IL-2 ELISA value; DO11.10 cells; 62 ng complex/well [2]: 0.744 A450; IL-2 ELISA value; DO11.10 cells; 125 ng complex/well [2]: 0.916 A450; IL-2 ELISA value; DO11.10 cells; 500 ng complex/well [2]: 1.6 A450; IL-2 ELISA value; DO11.10 cells; 1000 ng complex/well [2]: 1.86 A450
3 | single-chain IA^d linked to OVA 323-339 (scIA^d/OVA), monovalent (peptide-MHC) | 0.236 A405 | 0.397 A405 | 0.646 A405 | 1.03 A405 | 1.06 A405 | 0.665 A405 | 3.06 A405 | 0.236 A405 | 0.397 A405 | 0.646 A405 | 1.03 A405 | 1.06 A405 | 1.06 A405 | IL-2 ELISA value; DO11.10 T cells; 12.5 ng complex/well [2]: 0.176 A405; IL-2 ELISA value; DO11.10 T cells; 25 ng complex/well [2]: 0.209 A405; IL-2 ELISA value; DO11.10 T cells; 50 ng complex/well [2]: 1.19 A405; mean IL-2 absorbance reading of eight DMSO control wells (assay plate 5-2); DO11.10 T cells on 50 ng/well scIA^d/OVA [2]: 2.2 A450
4 | scIA^d/OVA-IgM fusion (scIA^d/OVA fused to CH2-CH3-CH4 of human IgM heavy chain), multi-valent (from UniProt P01871 106-453) (peptide-MHC) | 0.838 A405 | 1.18 A405 | 1.42 A405 | 1.33 A405 | 1.61 A405 | 1.48 A405 | 1.7 A405 | 0.264 A405 | 0.273 A405 | 1.32 A405 | 1.82 A405 | 2.33 A405 | 2.27 A405 | IL-2 ELISA value; DO11.10 T cells; 1 ng complex/well [3]: 0.268 A405; IL-2 ELISA value; DO11.10 T cells; 3 ng complex/well [3]: 0.529 A405; IL-2 ELISA value; DO11.10 T cells; 0.3 ng complex/well [2]: 0.192 A405; IL-2 ELISA value; DO11.10 T cells; 1 ng complex/well [2]: 0.195 A405; IL-2 ELISA value; DO11.10 T cells; 4 ng complex/well [2]: 0.23 A405; IL-2 ELISA value; DO11.10 T cells; 11 ng complex/well [2]: 0.601 A405; IL-2 ELISA value; DO11.10 T cells; 33 ng complex/well [2]: 1.64 A405; IL-2 ELISA value; DO11.10 T cells; 300 ng complex/well [2]: 0.853 A405; IL-2 ELISA value; BWDZ:CD4+ transfectants; 40 ng complex/well [4]: 0.305 A405; IL-2 ELISA value; BWDZ:CD4+ transfectants; 200 ng complex/well [4]: 0.34 A405; IL-2 ELISA value; BWDZ:CD4+ transfectants; 1000 ng complex/well [4]: 1.28 A405; IL-2 ELISA value; DO11.10 scTCR 2B4 transfectants; 1 ng complex/well [4]: 0.214 A405; IL-2 ELISA value; DO11.10 scTCR 2B4 transfectants; 3 ng complex/well [4]: 0.234 A405
5 | single-chain IA^d linked to HSV-1 glycoprotein D peptide GD 246-261 (scIA^d/GD), monovalent (peptide-MHC) | 0.163 A405 | 0.152 A405 | 0.213 A405 | 0.164 A405 | 0.179 A405 | 0.18 A405 | 0.152 A405 | 0.163 A405 | 0.152 A405 | 0.213 A405 | 0.164 A405 | 0.179 A405 | 0.227 A405 | 
